Source: patent US20250034267A1 (published 2025)

T1: CD25 endogenously expressed on SUDHL-1 human lymphoma cell line and induced human Treg (iTreg) (human, UniProt P01589 22-272)
T1 construct: whole, on cells; The cell type (SUDHL-1 or iTreg) is named under assay in each row; also called CD25 on SUDHL-1 and iTreg; CD25 expressing SUDHL-1
T1 sequence (looked up): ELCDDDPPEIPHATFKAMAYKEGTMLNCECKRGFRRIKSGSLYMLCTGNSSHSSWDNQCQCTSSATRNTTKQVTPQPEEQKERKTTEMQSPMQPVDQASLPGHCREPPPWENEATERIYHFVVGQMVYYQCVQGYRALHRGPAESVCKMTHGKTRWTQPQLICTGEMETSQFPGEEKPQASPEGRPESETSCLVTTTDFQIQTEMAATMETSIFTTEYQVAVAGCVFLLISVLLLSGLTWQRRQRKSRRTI

T2: CD25 (as used on the Carterra LSA) (Homo sapiens (Human), UniProt P01589 22-240)
T2 sequence: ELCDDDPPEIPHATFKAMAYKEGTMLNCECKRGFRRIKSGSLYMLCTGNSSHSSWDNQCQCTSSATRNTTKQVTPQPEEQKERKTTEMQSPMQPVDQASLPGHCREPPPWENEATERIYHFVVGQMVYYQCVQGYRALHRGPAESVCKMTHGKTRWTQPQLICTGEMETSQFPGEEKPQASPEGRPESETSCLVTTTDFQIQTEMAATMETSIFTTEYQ

T3: cynomolgus CD25 (Sino Biologicals, 90265-C08H) (cynomolgus, UniProt H6WS54 22-240)
T3 construct: Bought recombinant protein coated on ELISA plates; also called cynos monkey CD25; immobilized cynomolgus CD25
T3 sequence: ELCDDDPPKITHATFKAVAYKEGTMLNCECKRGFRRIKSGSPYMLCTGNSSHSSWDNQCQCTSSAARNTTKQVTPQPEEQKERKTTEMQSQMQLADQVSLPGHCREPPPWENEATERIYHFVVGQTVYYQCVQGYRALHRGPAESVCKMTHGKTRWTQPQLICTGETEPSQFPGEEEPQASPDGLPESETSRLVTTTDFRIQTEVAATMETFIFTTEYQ

T4: human CD25 (Sino Biologicals, 10165-H08H) (human, UniProt P01589 22-213)
T4 construct: Bought recombinant protein coated on ELISA plates; also called immobilized human CD25; IL2RA
T4 sequence (looked up): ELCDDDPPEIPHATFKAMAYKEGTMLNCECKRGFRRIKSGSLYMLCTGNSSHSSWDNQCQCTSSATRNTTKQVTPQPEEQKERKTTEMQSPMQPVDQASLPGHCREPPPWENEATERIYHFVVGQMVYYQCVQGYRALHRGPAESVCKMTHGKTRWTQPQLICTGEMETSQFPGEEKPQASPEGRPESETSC

T5: human IL2R on HEK blue human IL2R overexpressing cell line (human, UniProt P01589 22-272; P14784 27-551; P31785 23-369)
T5 sequence (looked up) 1: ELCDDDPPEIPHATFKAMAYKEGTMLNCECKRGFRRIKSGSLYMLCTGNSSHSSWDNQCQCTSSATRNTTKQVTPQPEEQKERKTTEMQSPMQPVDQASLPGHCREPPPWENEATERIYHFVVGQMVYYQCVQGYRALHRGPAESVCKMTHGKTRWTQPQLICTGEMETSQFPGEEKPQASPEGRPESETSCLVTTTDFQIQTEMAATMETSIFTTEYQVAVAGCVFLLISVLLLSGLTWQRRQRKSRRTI
T5 sequence (looked up) 2: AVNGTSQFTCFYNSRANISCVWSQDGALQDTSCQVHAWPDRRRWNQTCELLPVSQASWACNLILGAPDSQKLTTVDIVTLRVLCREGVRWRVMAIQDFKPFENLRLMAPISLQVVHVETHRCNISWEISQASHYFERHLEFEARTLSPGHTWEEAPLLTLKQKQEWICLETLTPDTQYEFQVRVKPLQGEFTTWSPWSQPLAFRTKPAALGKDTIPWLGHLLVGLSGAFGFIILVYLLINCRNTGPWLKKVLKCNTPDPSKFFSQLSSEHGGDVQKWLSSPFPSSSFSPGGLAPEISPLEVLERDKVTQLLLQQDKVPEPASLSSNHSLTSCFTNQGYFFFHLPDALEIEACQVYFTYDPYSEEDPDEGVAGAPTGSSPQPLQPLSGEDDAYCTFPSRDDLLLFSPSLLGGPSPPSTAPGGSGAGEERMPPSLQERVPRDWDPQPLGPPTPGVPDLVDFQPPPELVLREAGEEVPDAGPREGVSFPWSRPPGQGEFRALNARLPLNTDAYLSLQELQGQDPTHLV
T5 sequence (looked up) 3: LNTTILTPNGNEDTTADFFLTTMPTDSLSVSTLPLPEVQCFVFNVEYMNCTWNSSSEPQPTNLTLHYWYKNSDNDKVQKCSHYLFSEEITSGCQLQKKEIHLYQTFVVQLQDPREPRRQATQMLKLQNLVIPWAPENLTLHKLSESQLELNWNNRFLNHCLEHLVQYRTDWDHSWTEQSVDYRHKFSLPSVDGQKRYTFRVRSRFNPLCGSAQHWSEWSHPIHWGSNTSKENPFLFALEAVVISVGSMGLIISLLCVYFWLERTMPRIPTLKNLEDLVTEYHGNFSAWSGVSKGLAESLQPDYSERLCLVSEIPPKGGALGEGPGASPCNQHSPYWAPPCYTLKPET


How the values were obtained:
[1] = target: T1, CD25 endogenously expressed on SUDHL-1 …; test: flow cytometry on iTreg cells; average of n=3; SD 83.94
Experimental: (§1) The plates were centrifuged and then kept on ice for the remaining essay steps after aspiration of the supernatant. Following supernatant aspiration, the anti-CD25 or control antibodies in the assay buffer were added to the cells at increasing concentrations (0.64-10,000 ng/ml) for 20 minutes on ice. After incubation, the plates were centrifuged and the supernatant was aspirated, then the cells were washed once with the assay buffer followed by centrifugation and supernatant aspiration. […] After incubation, the plates were centrifuged and the supernatant was aspirated, then the cells were washed once with the assay buffer followed by centrifugation and supernatant aspiration. […] Cell binding was analyzed on a Miltenyi MACSQuant 16 flow cytometer. Flow cytometry data were analyzed with the FlowJo flow cytometry analysis software. For making graphs and calculation of the EC₅₀ values GraphPad Prism 9.3.0 was used.

[2] = target: T1, CD25 endogenously expressed on SUDHL-1 …; test: cell-based or functional assay
[3] = target: T2, CD25 (as used on the Carterra LSA); test: Carterra LSA binding kinetics; KD SD 1.27 nM
[4] = target: T1, CD25 endogenously expressed on SUDHL-1 …; test: flow cytometry on SUDHL-1 cells; average of n>=6; SD 38.12
Experimental: SUDHL-1 and iTreg Cell Binding Assay.
as §1

[5] = target: T2, CD25 (as used on the Carterra LSA); test: Carterra LSA binding kinetics
[6] = target: T3, cynomolgus CD25 (Sino Biologicals, …); test: ELISA, plate coated with cynomolgus CD25; average of n>=3; SD 9.8
Experimental: (§2) Values plotted are measured absorbance at 450 nm wavelength.
(§3) CD25 Binding ELISA. […] The next day, plates were washed three times with wash buffer [1X PBS with 0.1% Tween-20 (Teknova, P0207)] followed by the addition of blocking buffer [1X PBS, 1% BSA (Teknova, B0101)] for 1 hour at room temperature. After blocking, plates were washed three times with wash buffer followed by the addition of the anti-CD25 or control antibodies in wash buffer at increasing concentrations (0.0006-10 μg/mL) for 1 hour at room temperature. After incubation, plates were washed three times with wash buffer followed by the addition of goat anti-human IgG-HRP secondary antibody (Biorad, STAR126P) at 1:2500 dilution in wash buffer for 1 hour at room temperature. […] After TMB substrate incubation, ELISA stop solution (Thermo Fisher, SS04) was added to the plate at equal volume to the TMB substrate and the absorbance was read at 450 nm. The data was plotted using GraphPad Prism 9.3.0 software and the EC₅₀ values were calculated by the software.

[7] = target: T4, human CD25 (Sino Biologicals, …); test: ELISA, plate coated with human CD25; average of n>=3; SD 3.2
Experimental: as §2, §3

[8] = target: T1, CD25 endogenously expressed on SUDHL-1 …; test: cell-based or functional assay; remark: listed apart in the source
[9] = target: T5, human IL2R on HEK blue human IL2R …; test: cell-based or functional assay
[10] = target: T3, cynomolgus CD25 (Sino Biologicals, …); test: ELISA, plate coated with cynomolgus CD25; average of n>=3; SD 12.3
Experimental: as §2, §3

[11] = target: T4, human CD25 (Sino Biologicals, …); test: ELISA, plate coated with human CD25; average of n>=3; SD 2.5
Experimental: as §2, §3

[12] = target: T1, CD25 endogenously expressed on SUDHL-1 …; test: flow cytometry on iTreg cells; average of n=3; SD 40.50
Experimental: as §1

[13] = target: T2, CD25 (as used on the Carterra LSA); test: Carterra LSA binding kinetics; KD SD 1.03 nM
[14] = target: T1, CD25 endogenously expressed on SUDHL-1 …; test: flow cytometry on SUDHL-1 cells; average of n>=6; SD 39.9
Experimental: SUDHL-1 and iTreg Cell Binding Assay.
as §1

[15] = target: T2, CD25 (as used on the Carterra LSA); test: Carterra LSA binding kinetics; KD SD 0.69 nM
[16] = target: T1, CD25 endogenously expressed on SUDHL-1 …; test: flow cytometry on SUDHL-1 cells; average of n>=6; SD 39.71
Experimental: SUDHL-1 and iTreg Cell Binding Assay.
as §1

[17] = target: T3, cynomolgus CD25 (Sino Biologicals, …); test: ELISA, plate coated with cynomolgus CD25; average of n>=3; SD 8.8
Experimental: as §2, §3

[18] = target: T4, human CD25 (Sino Biologicals, …); test: ELISA, plate coated with human CD25; average of n>=3; SD 3.3
Experimental: as §2, §3

[19] = target: T1, CD25 endogenously expressed on SUDHL-1 …; test: flow cytometry on iTreg cells; average of n=3; SD 63.88
Experimental: as §1

[20] = target: T3, cynomolgus CD25 (Sino Biologicals, …); test: ELISA, plate coated with cynomolgus CD25; average of n>=3; SD 19.5
Experimental: as §2, §3

[21] = target: T1, CD25 endogenously expressed on SUDHL-1 …; test: flow cytometry on iTreg cells; average of n=3; SD 44.59
Experimental: as §1

[22] = target: T4, human CD25 (Sino Biologicals, …); test: ELISA, plate coated with human CD25; average of n>=3; SD 4.9
Experimental: as §2, §3

[23] = target: T2, CD25 (as used on the Carterra LSA); test: Carterra LSA binding kinetics; KD SD 0.37 nM
[24] = target: T1, CD25 endogenously expressed on SUDHL-1 …; test: flow cytometry on SUDHL-1 cells; average of n>=6; SD 26.2
Experimental: SUDHL-1 and iTreg Cell Binding Assay.
as §1

| EC50, iTreg/NFAT CD16 ADCC reporter assay [2] [µg/mL] | koff [5] [s⁻¹] | kon [5] [M⁻¹ s⁻¹] | EC50, SUDHL-1/NFAT CD16 ADCC reporter assay [8] [µg/mL] | EC50, IL-2 reporter HEK293 pSTAT5 assay (activation of STAT5 by IL2 in presence of the antibody) [9] [ng/ml] | Binder | also measured |
| --- | --- | --- | --- | --- | --- | --- |
| 0.00714 | 0.00207 | 492000 | 0.0089 | 0.17 | IBIO-101-plant-afuc (SD-889825-PC-A; IBIO-101, c-105 plant Afucosylated) (antibody, human IgG1, kappa, V domains shown, Same antibody made in C105 deltaXT/FT N. benthamiana plants, glycans without fucose and xylose; also called RTX-003; hD11) VH: QVQLVQSGAEVKKPGASLKISCKGSGYTFTDYAMHWVRQAPGQGLEWIGVISTYSGDAIYAQKFQGRATMTVDTSTSTAYLELSSLRSEDTAVYYCARGVTFDYWGQGTTVTVSS VL: DIQMTQSPSSLSASVGDRVTITCRASQDISNYLEWYQQKPGKAPKLLVYNAKTLAEGVPSRFSGSGSGTDFTLTISSLQPEDFGTYYCQHHYDTPYTFGQGTKLEIKR | EC50 [1]: 0.218 µg/mL; Kd [3]: 4.27 nM; EC50 [4]: 0.123 µg/mL; EC50 [6]: 0.0424 µg/mL; EC50 [7]: 0.0174 µg/mL |
| 0.00471 | 0.00119 | 499000 | 0.0072 | 0.17 | IBIO-101-CHO-afuc (SD-889825-CG-A; IBIO-101, CHO cells Afucosylated) (antibody, human IgG1, kappa, V domains shown, Same antibody made in CHO cells, afucosylated glycans; also called RTX-003; hD11) VH: QVQLVQSGAEVKKPGASLKISCKGSGYTFTDYAMHWVRQAPGQGLEWIGVISTYSGDAIYAQKFQGRATMTVDTSTSTAYLELSSLRSEDTAVYYCARGVTFDYWGQGTTVTVSS VL: DIQMTQSPSSLSASVGDRVTITCRASQDISNYLEWYQQKPGKAPKLLVYNAKTLAEGVPSRFSGSGSGTDFTLTISSLQPEDFGTYYCQHHYDTPYTFGQGTKLEIKR | EC50 [10]: 0.0431 µg/mL; EC50 [11]: 0.0156 µg/mL; EC50 [12]: 0.219 µg/mL; Kd [13]: 3.9 nM; EC50 [14]: 0.126 µg/mL |
| 0.0303 | 0.0012 | 485000 | 0.0325 | 0.21 | IBIO-101-plant-WT (SD-889825-PW-A; IBIO-101, wild-type plant) (antibody, human IgG1, kappa, V domains shown, Same antibody made in wild-type Nicotiana benthamiana plants; also called RTX-003; hD11) VH: QVQLVQSGAEVKKPGASLKISCKGSGYTFTDYAMHWVRQAPGQGLEWIGVISTYSGDAIYAQKFQGRATMTVDTSTSTAYLELSSLRSEDTAVYYCARGVTFDYWGQGTTVTVSS VL: DIQMTQSPSSLSASVGDRVTITCRASQDISNYLEWYQQKPGKAPKLLVYNAKTLAEGVPSRFSGSGSGTDFTLTISSLQPEDFGTYYCQHHYDTPYTFGQGTKLEIKR | Kd [15]: 4.2 nM; EC50 [16]: 0.126 µg/mL; EC50 [17]: 0.0439 µg/mL; EC50 [18]: 0.016 µg/mL; EC50 [19]: 0.235 µg/mL |
| 0.0538 | 0.00192 | 471000 | 0.0845 | 0.17 | IBIO-101-CHO-WT (SD-889825-CW-A; IBIO-101, wild-type CHO cells) (antibody, human IgG1, kappa, V domains shown, The signal peptide is marked only by bold print (lost here); also called RTX-003; hD11) VH: QVQLVQSGAEVKKPGASLKISCKGSGYTFTDYAMHWVRQAPGQGLEWIGVISTYSGDAIYAQKFQGRATMTVDTSTSTAYLELSSLRSEDTAVYYCARGVTFDYWGQGTTVTVSS VL: DIQMTQSPSSLSASVGDRVTITCRASQDISNYLEWYQQKPGKAPKLLVYNAKTLAEGVPSRFSGSGSGTDFTLTISSLQPEDFGTYYCQHHYDTPYTFGQGTKLEIKR | EC50 [20]: 0.0544 µg/mL; EC50 [21]: 0.223 µg/mL; EC50 [22]: 0.0199 µg/mL; Kd [23]: 4.1 nM; EC50 [24]: 0.123 µg/mL |
